# Values of other authors as cited in US20110171162A1, “POLYMER CONJUGATES OF THYMOSIN ALPHA 1 PEPTIDES” (NEKTAR THERAPEUTICS, priority 2008, published 2011).
# Details: in human plasma
substance,measurement,value
"thymosin alpha 1: Twenty-eight amino acid peptide, SEQ ID NO: 1 (SDAAVDTSSEITTKDLKEKKEVVEEAEN); sold as ZADAXIN thymosin alpha 1, injection (thymalfasin) (listed as Homo sapiens)",half-life,approximately two
